Experimental data as given in the supplement of paper PMC9732359.
± gives the uncertainty stated by the source.

Assay: protein stability index of a GFP-peptide fusion (yeast GPS) (PSI 1-4); higher = more stable; sorted into four equal gates, so the index is relative within each strain
Settings: doa10∆
In short: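 The protein stability index of a peptide was calculated by multiplying its read frequency in each gate by that gate's number and adding the products. The peptides were tiled 17-residue stretches of yeast proteins, fused downstream of GFP on a Cherry-expressing plasmid and carried in yeast as a pooled library. Mid-log cultures in leucine-free medium were sorted into four equal gates by GFP/Cherry ratio, and each gate's plasmids were PCR-amplified and Illumina-sequenced.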

Sequence | protein stability index
EPSGIYSSWSAQTIGRN [PRE6] | 1.24 ± 0.064
EQEIENNGLPMKNKAET [ITC1] | 2.81 ± 0.065
EQEQQQQQIIKIRITLT [RPS20] | 2.77 ± 0.057
EQISNNSNQQQNPKLFQ [SIN4] | 2.96 ± 0.062
EQKNTAKEELNGLKDQL [YIL149C/MLP2] | 3.19 ± 0.1
EQLKEQMEDMEESINEF [SMC4] | 3.17 ± 0.21
EQNSSSAKPSQIPTVSS [SIR4] | 2.99 ± 0.062
EQQWITRAQYLAFAKLV [SRP68] | 1.63 ± 0.06
EQSELLKAQITSLKCLV [SNF2] | 1.92 ± 0.049
EQSLEVFIFPTSNWEIY [SRB8] | 2.47 ± 0.067
EREPVPLGILHIPICVT [RRP45] | 1.81 ± 0.077
ERESSGAKDAEKSGISK [RPC17] | 2.91 ± 0.18
ERFQVMVLRKQKRYTVK [RPL14A] | 2.37 ± 0.12
ERGHPKDNARIYQVPEK [POP1] | 3.02 ± 0.082
ERHQAGKNQWFFSKLRF [RPL27A] | 3.19 ± 0.091
ERKEQEEKEKEQSKEVG [BRN1] | 3.48 ± 0.21
ERKQIHEFKLIVGKKIQ [GRR1] | 2.82 ± 0.045
ERKTLERQQENLLIQRL [SWI3] | 3.07 ± 0.09
ERNASEVRDATLNNIFR [GRR1] | 3.36 ± 0.17
ERPAIEFETPTFLVSND [RPN14] | 3 ± 0.063
ERTKQRTAKAYLKVSEE [PRP8] | 3.08 ± 0.093
ERVMKNKVEENLEGLYL [RPT2] | 3.12 ± 0.11
ESAVKYALAAKDRFDID [RPN2] | 3.54 ± 0.27
ESDSKATLQSNEPTQKD [DSN1] | 2.81 ± 0.12

Sequence | protein stability index
ESKLIPQENDLESKMSE [SMC3] | 2.81 ± 0.065
ESKPFSSDALSKEKANF [SIR4] | 1.96 ± 0.068
ESKSDDNSATSYYELET [RRI1] | 3.25 ± 0.084
ESLYEPNLEPEDLFETI [PUP3] | 3.27 ± 0.12
ESPVDVQSQVDSSSVSE [FAS1] | 3.11 ± 0.06
ESSINTHPHAADGSSYM [SKI6] | 2.98 ± 0.047
ESSSEDDYEDQDDDDYV [IRR1] | 3.58 ± 0.16
ESVPIYSIDEFFLQRKL [BRR2] | 3.44 ± 0.13
ESYNQNDWKLETERLIS [SIN4] | 3.4 ± 0.09
ETANVASLNLLQLAPGA [RPL4A] | 2.84 ± 0.14
ETATSERNASEVRDATL [GRR1] | 3.53 ± 0.19
ETESSVSNNEANTPSIP [SWI3] | 3.09 ± 0.053
ETIIEADKSLPSSMATL [YJR042W/NUP85] | 2.75 ± 0.083
ETIKSLEDPYKYHYKEE [CSN9] | 3.17 ± 0.09
ETYGSMEMSEKIQFILE [RPN5] | 2.41 ± 0.12
EVDKSKLITTYISLLKL [YDL116W/NUP84] | 2.66 ± 0.08
EVDVCDKCGLMGYSGWC [RET1] | 2.15 ± 0.098
EVFIGRVKDQDGRVNRF [YJR042W/NUP85] | 3.44 ± 0.2
EVGNRKHYLEDKLKVYK [SNF5] | 3.19 ± 0.1
EVGPWGSARTRWEMEAF [FAS2] | 1.23 ± 0.077
EVIFTDVLKSQANTEPE [MCD1] | 3.07 ± 0.21
EVLEKDAAIVKKYKNKT [YGR119C/NUP57] | 3.15 ± 0.11
EVLQGLLQGGAKVVVTT [FAS2] | 3.22 ± 0.092
EVNSLLLQVNKTFCEDP [GRR1] | 3.27 ± 0.099

Sequence | protein stability index
EVSGENVVEADLKRFVD [QCR2] | 3.31 ± 0.19
EYAALASLADVMSIESL [FAS1] | 3.07 ± 0.069
EYGKHDFKNEESLSEEH [MED8] | 3.3 ± 0.1
EYIDAEEEESILIAMQP [RPB2] | 3.37 ± 0.076
EYKLATYGVPGSENKRG [NUT1] | 3.36 ± 0.086
EYNRLKVQDAIEEEIFD [LIN1] | 2.83 ± 0.057
EYYAKKRAFTKKVASAN [RPL16A] | 2.06 ± 0.081
FAAKQRQELQMQRQQQG [SNF2] | 2.66 ± 0.052
FADKKRDCIDISIFSTP [PRP8] | 3.2 ± 0.076
FAGVASKKVTSGVPRLK [RPO21] | 3.03 ± 0.2
FALIDYFYDLDVLKDGE [BRN1] | 2.86 ± 0.049
FDALRSLDDNSTSLEKQ [YJL041W/NSP1] | 2.99 ± 0.086
FDEGTTLLSPKDNGMLI [RPO21] | 2.7 ± 0.066
FDEKTIEEMLEIISGYA [RPC17] | 1.36 ± 0.082
FDFIKDNETPSKKTSPK [YOR098C/NUP1] | 2.25 ± 0.051
FDFLDDGTAQLSNNKTD [YJR042W/NUP85] | 3.38 ± 0.23
FDKNTKTTPNTASSEAS [YMR153W/NUP53] | 2.99 ± 0.051
FDPSRIKDLKQREDKLK [SMC2] | 2.66 ± 0.087
FDVVLTTFEYIIKERAL [SNF2] | 2.12 ± 0.067
FEAAVKMSDGFNGADIR [RPT4] | 3.66 ± 0.18
FEDATREQHIDTICQSI [SNF5] | 2.88 ± 0.1
FEEWIKMATDNKINSRN [BRN1] | 3.27 ± 0.13
FEFGNMKATSNTLEEFE [FAS2] | 3.18 ± 0.054
FEFNIRHSGKVYPITLS [UBP6] | 1.74 ± 0.11

Same assay, conditions: pdr5∆

Sequence | protein stability index
EPSGIYSSWSAQTIGRN [PRE6] | 1.21 ± 0.089
EQEIENNGLPMKNKAET [ITC1] | 3.06 ± 0.066
EQEQQQQQIIKIRITLT [RPS20] | 2.86 ± 0.06
EQISNNSNQQQNPKLFQ [SIN4] | 2.67 ± 0.045
EQKNTAKEELNGLKDQL [YIL149C/MLP2] | 3.32 ± 0.16
EQLKEQMEDMEESINEF [SMC4] | 3.2 ± 0.1
EQNSSSAKPSQIPTVSS [SIR4] | 2.97 ± 0.051
EQQWITRAQYLAFAKLV [SRP68] | 1.51 ± 0.051
EQSELLKAQITSLKCLV [SNF2] | 1.83 ± 0.048
EQSLEVFIFPTSNWEIY [SRB8] | 2.2 ± 0.048
EREPVPLGILHIPICVT [RRP45] | 1.88 ± 0.06
ERESSGAKDAEKSGISK [RPC17] | 3.4 ± 0.3
EREVFVDVKPKSPKERE [RPC25] | 2.98 ± 0.17
ERFQVMVLRKQKRYTVK [RPL14A] | 2.19 ± 0.1
ERGHPKDNARIYQVPEK [POP1] | 3.02 ± 0.1
ERHQAGKNQWFFSKLRF [RPL27A] | 3.24 ± 0.092
ERKQIHEFKLIVGKKIQ [GRR1] | 2.58 ± 0.065
ERKTLERQQENLLIQRL [SWI3] | 3.28 ± 0.087
ERPAIEFETPTFLVSND [RPN14] | 3.14 ± 0.056
ERTKQRTAKAYLKVSEE [PRP8] | 3.12 ± 0.11
ERVMKNKVEENLEGLYL [RPT2] | 3.28 ± 0.067
ESAVKYALAAKDRFDID [RPN2] | 3.09 ± 0.29
ESDSKATLQSNEPTQKD [DSN1] | 2.94 ± 0.14
ESKLIPQENDLESKMSE [SMC3] | 3.05 ± 0.065
ESKPFSSDALSKEKANF [SIR4] | 1.59 ± 0.065

Sequence | protein stability index
ESKSDDNSATSYYELET [RRI1] | 3.24 ± 0.059
ESLYEPNLEPEDLFETI [PUP3] | 3.09 ± 0.13
ESPVDVQSQVDSSSVSE [FAS1] | 3.3 ± 0.073
ESSINTHPHAADGSSYM [SKI6] | 3.22 ± 0.039
ESSSEDDYEDQDDDDYV [IRR1] | 3.52 ± 0.11
ESVPIYSIDEFFLQRKL [BRR2] | 3.21 ± 0.062
ESYNQNDWKLETERLIS [SIN4] | 3.21 ± 0.14
ETANVASLNLLQLAPGA [RPL4A] | 3.02 ± 0.18
ETATSERNASEVRDATL [GRR1] | 3.45 ± 0.19
ETESSVSNNEANTPSIP [SWI3] | 3.12 ± 0.069
ETIIEADKSLPSSMATL [YJR042W/NUP85] | 2.85 ± 0.061
ETIKSLEDPYKYHYKEE [CSN9] | 3.13 ± 0.082
ETYGSMEMSEKIQFILE [RPN5] | 2.94 ± 0.082
EVDKSKLITTYISLLKL [YDL116W/NUP84] | 1.45 ± 0.06
EVDVCDKCGLMGYSGWC [RET1] | 2.73 ± 0.086
EVFEFKTFNKIQSQVFE [BRR2] | 3.29 ± 0.19
EVFIGRVKDQDGRVNRF [YJR042W/NUP85] | 3.28 ± 0.28
EVGNRKHYLEDKLKVYK [SNF5] | 3.19 ± 0.14
EVGPWGSARTRWEMEAF [FAS2] | 1.62 ± 0.25
EVIFTDVLKSQANTEPE [MCD1] | 3.08 ± 0.12
EVKLKASLKKMEETEQK [SMC3] | 3.16 ± 0.15
EVLEKDAAIVKKYKNKT [YGR119C/NUP57] | 3.24 ± 0.087
EVLQGLLQGGAKVVVTT [FAS2] | 2.91 ± 0.076
EVNSLLLQVNKTFCEDP [GRR1] | 3.34 ± 0.066
EVSDFDEMYELTDPMTV [DIB1] | 3.48 ± 0.18

Sequence | protein stability index
EVSGENVVEADLKRFVD [QCR2] | 3.25 ± 0.13
EYAALASLADVMSIESL [FAS1] | 3.11 ± 0.068
EYGKHDFKNEESLSEEH [MED8] | 3 ± 0.081
EYIDAEEEESILIAMQP [RPB2] | 3.41 ± 0.091
EYKLATYGVPGSENKRG [NUT1] | 3.25 ± 0.093
EYNRLKVQDAIEEEIFD [LIN1] | 2.31 ± 0.05
EYYAKKRAFTKKVASAN [RPL16A] | 1.7 ± 0.063
FAAKQRQELQMQRQQQG [SNF2] | 2.84 ± 0.046
FADKKRDCIDISIFSTP [PRP8] | 2.99 ± 0.072
FAGVASKKVTSGVPRLK [RPO21] | 3.08 ± 0.2
FALIDYFYDLDVLKDGE [BRN1] | 2.76 ± 0.057
FDALRSLDDNSTSLEKQ [YJL041W/NSP1] | 3.03 ± 0.11
FDEGTTLLSPKDNGMLI [RPO21] | 2.45 ± 0.067
FDEKTIEEMLEIISGYA [RPC17] | 2.69 ± 0.14
FDFIKDNETPSKKTSPK [YOR098C/NUP1] | 2.87 ± 0.043
FDFLDDGTAQLSNNKTD [YJR042W/NUP85] | 3.52 ± 0.21
FDKNTKTTPNTASSEAS [YMR153W/NUP53] | 2.98 ± 0.053
FDPSRIKDLKQREDKLK [SMC2] | 2.88 ± 0.18
FDVVLTTFEYIIKERAL [SNF2] | 2.36 ± 0.071
FEAAVKMSDGFNGADIR [RPT4] | 3.46 ± 0.091
FEDATREQHIDTICQSI [SNF5] | 3.21 ± 0.15
FEEWIKMATDNKINSRN [BRN1] | 3.17 ± 0.096
FEFGNMKATSNTLEEFE [FAS2] | 3.4 ± 0.08
